The target of the test is IL-2Rα (on CTLL2 cells) (UniProt P01590). Nature of the test: cell-based or functional assay.
Chain of IL-2Rα (on CTLL2 cells) (P01590 22-268 limits assumed): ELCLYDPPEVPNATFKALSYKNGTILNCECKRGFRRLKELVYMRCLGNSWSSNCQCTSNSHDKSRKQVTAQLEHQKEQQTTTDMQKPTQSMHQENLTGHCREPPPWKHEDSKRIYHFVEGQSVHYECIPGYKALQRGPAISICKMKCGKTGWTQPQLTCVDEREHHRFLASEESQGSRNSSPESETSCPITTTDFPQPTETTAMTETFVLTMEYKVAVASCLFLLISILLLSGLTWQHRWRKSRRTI

For “HSA-IL-2-T3A/C125S-F42A/Y45A/L72G (SEQ ID NO: 126)”, the EC50 in the CTLL2 cell-based activity assay was 77 nM.

The substance “HSA-IL-2-T3A/C125S-R38S/F42A/Y45A/E62A (SEQ ID NO: 127)” came in with an EC50 in the CTLL2 cell-based activity assay of 76 nM.

With “IgG1FC (with LALA and Knob)-IL-2-T3A/C125S-R38S/F42A/Y45A/A73T (SEQ ID NO: 135) paired with Fc hole (SEQ ID NO: 194) (from UniProt P0DOX5 223-449) (Fc fusion)”, the EC50 in the CTLL2 cell-based activity assay was determined as 60 nM.

“IgG1FC (with LALA and Knob)-IL-2-T3A/C125S-R38S/F42A/Y45A/E62A (SEQ ID NO: 132) paired with Fc hole (SEQ ID NO: 194) (from UniProt P0DOX5 223-449) (Fc fusion)” showed an EC50 in the CTLL2 cell-based activity assay of 60 nM.
